Test [1] concerns the target T1, tau aggregates in HEK293 tau biosensor cells (4R repeat domain of tau (K18) with the P301S mutation fused to … (UniProt P10636-8 244-372)).
T1 construct: domain: 4R repeat domain of tau (K18); Aggregated, insoluble form inside cells; the aggregates are seeded with brain homogenate of tau transgenic mice and may hold other proteins and RNA; Number of chains in an aggregate not defined; also called cytoplasmic tau aggregates; nuclear tau aggregates; not shown: CFP or YFP fused to the repeat domain
Kind of test: Halo (JF646) imaging in seeded HEK293 tau biosensor cells.

Test [2] concerns the target T1, tau aggregates in HEK293 tau biosensor …. Kind of test: cell-based or functional assay.

T1 sequence (P10636 561-689 P618S): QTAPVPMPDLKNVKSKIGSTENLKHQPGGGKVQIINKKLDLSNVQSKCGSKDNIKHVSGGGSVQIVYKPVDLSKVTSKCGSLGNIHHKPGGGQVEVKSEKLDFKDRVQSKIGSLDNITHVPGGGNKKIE

B1: SRRM2_5-Halo (other)
chain: MYNGIGLPTPRGSGTNGYVQRNLSLVRGRRGERPDYKGEEELRRLEAALVKRPNPDILDHERKRRVELRCLELEEMMEEQGYEEQQIQEKVATFRLMLLEKDVNPGGKEETPGQRPAVTETHQLAELNEKKNERLRAAFGISDSYVDGSSFDPQRRAREAKQPAPEPPKPYSLVRESSSSRSPTPKQKKKKKKKDRGRRSESSSPRRERKKSSKKKKHRSESESKKRKHRSPTPKSKRKSKDKKRKRSRSTTPAPKSRRAHRSTSADSASSSDTSRSRSRSAAAKTHTTALAGRSPSPASGRRGEGDAPFSEPGTTSTQRPSSPETATKQPSSPYEDKDKDKKEKSATRPSPSPERSSTGPEPPAPTPLLAERHGGSPQPLATTPLSQEPVNPPSEASPTRDRSPPKSPEKLPQSSSSESSPPSPQPTKVSRHASSSPESPKPAPAPGSHREISSSPTSKNRSHGRAKRDKSHSHTPSRRMGRSRSPATAKRGRSRSRTPTKRGHSRSRSPQWRRSRSAQRWGRSRSPQRRGRSRSPQRPGWSRSRNTQRRGRSRSARRGRSHSRSPATRGRSRSRTPARRGRSRSRTPARRRSRSRTPTRRRSRSRTPARRGRSRSRTPARRRSRTRSPVRRRSRSRSPARRSGRSRSRTPARRGRSRSRTPARRGRSRSRTPARRSGRSRSRTPARRGRSRSRTPRRGRSRSRSLVRRGRSHSRTPQRRGRSGSSSERKNKSRTSQRRSRSNSSPEMKKSRISSRRSRSLSSPRSKAKSRLSLRRSLSGSSPCPKQKSQTPPRRSRSGSSQPKMAEIGTGFPFDPHYVEVLGERMHYVDVGPRDGTPVLFLHGNPTSSYVWRNIIPHVAPTHRCIAPDLIGMGKSDKPDLGYFFDDHVRFMDAFIEALGLEEVVLVIHDWGSALGFHWAKRNPERVKGIAFMEFIRPIPTWDEWPEFARETFQAFRTTDVGRKLIIDQNVFIEGTLPMGVVRPLTEVEMDHYREPFLNPVDREPLWRFPNELPIAGEPANIVALVEEYMDWLHQSPVPKLLFWGTPGVLIPPAEAARLAKSLPNCKAVDIGPGLNLLQEDNPDLIGSEIARWLSTLEISG
modifications: JF646 Halo ligand covalently bound to the Halo tag
notes: also called truncation 5
As to B1, in test [1], the binding result is listed as “no binding”.

B2: 42-polyserine-TNPO3-halo (other)
chain: MEGAKPTLQLVYQAVQALYHDPDPSGKERASFWLGELQRSVHAWEISDQLLQIRQDVESCYFAAQTMKMKIQTSFYELPTDSHASLRDSLLTHIQNLKDLSPVIVTQLALAIADLALQMPSWKGCVQTLVEKYSNDVTSLPFLLEILTVLPEEVHSRSLRIGANRRTEIIEDLAFYSSTVVSLLMTCVEKAGTDEKMLMKVFRCLGSWFNLGVLDSNFMANNKLLALLFEVLQQDKTSSNLHEAASDCVCSALYAIENVETNLPLAMQLFQGVLTLETAYHMAVAREDLDKVLNYCRIFTELCETFLEKIVCTPGQGLGDLRTLELLLICAGHPQYEVVEISFNFWYRLGEHLYKTNDEVIHGIFKAYIQRLLHALARHCQLEPDHEGVPEETDDFGEFRMRVSDLVKDLIFLIGSMECFAQLYSTLKEGNPPWEVTEAVLFIMAAIAKSVDPENNPTLVEVLEGVVRLPETVHTAVRYTSIELVGEMSEVVDRNPQFLDPVLGYLMKGLCEKPLASAAAKAIHNICSVCRDHMAQHFNGLLEIARSLDSFLLSPEAAVGLLKGTALVLARLPLDKITECLSELCSVQVMALKKLLSQEPSNGISSDPTVFLDRLAVIFRHTNPIVENGQTHPCQKVIQEIWPVLSETLNKHRADNRIVERCCRCLRFAVRCVGKGSAALLQPLVTQMVNVYHVHQHSCFLYLGSILVDEYGMEEGCRQGLLDMLQALCIPTFQLLEQQNGLQNHPDTVDDLFRLATRFIQRSPVTLLRSQVVIPILQWAIASTTLDHRDANCSVMRFLRDLIHTGVANDHEEDFELRKELIGQVMNQLGQQLVSQLLHTCCFCLPPYTLPDVAEVLWEIMQVDRPTFCRWLENSLKGLPKETTVGAVTVTHKQLTDFHKQVTSAEECKQVCWALRDFTRLFRGTELGSTSPVWWNSADISSSSSSSSSSSSSSSSSSSSSSSSSSSSSSSSSSSSSSSSSSGGSGGSGGGSEIGTGFPFDPHYVEVLGERMHYVDVGPRDGTPVLFLHGNPTSSYVWRNIIPHVAPTHRCIAPDLIGMGKSDKPDLGYFFDDHVRFMDAFIEALGLEEVVLVIHDWGSALGFHWAKRNPERVKGIAFMEFIRPIPTWDEWPEFARETFQAFRTTDVGRKLIIDQNVFIEGTLPMGVVRPLTEVEMDHYREPFLNPVDREPLWRFPNELPIAGEPANIVALVEEYMDWLHQSPVPKLLFWGTPGVLIPPAEAARLAKSLPNCKAVDIGPGLNLLQEDNPDLIGSEIARWLSTLEISG
With B2, the “tau aggregation by flow cytometry (FRET+ cells and integrated FRET density, normalized to no insert Halo)” value in test [2] is roughly 50 % decrease.

B3: SRRM2_6-Halo (other)
chain: MYNGIGLPTPRGSGTNGYVQRNLSLVRGRRGERPDYKGEEELRRLEAALVKRPNPDILDHERKRRVELRCLELEEMMEEQGYEEQQIQEKVATFRLMLLEKDVNPGGKEETPGQRPAVTETHQLAELNEKKNERLRAAFGISDSYVDGSSFDPQRRAREAKQPAPEPPKPYSLVRESSSSRSPTPKQKKKKKKKDRGRRSESSSPRRERKKSSKKKKHRSESESKKRKHRSPTPKSKRKSKDKKRKRSRSTTPAPKSRRAHRSTSADSASSSDTSRSRSRSAAAKTHTTALAGRSPSPASGRRGEGDAPFSEPGTTSTQRPSSPETATKQPSSPYEDKDKDKKEKSATRPSPSPERSSTGPEPPAPTPLLAERHGGSPQPLATTPLSQEPVNPPSEASPTRDRSPPKSPEKLPQSSSSESSPPSPQPTKVSRHASSSPESPKPAPAPGSHREISSSPTSKNRSHGRAKRDKSHSHTPSRRMGRSRSPATAKRGRSRSRTPTKRGHSRSRSPQWRRSRSAQRWGRSRSPQRRGRSRSPQRPGWSRSRNTQRRGRSRSARMAEIGTGFPFDPHYVEVLGERMHYVDVGPRDGTPVLFLHGNPTSSYVWRNIIPHVAPTHRCIAPDLIGMGKSDKPDLGYFFDDHVRFMDAFIEALGLEEVVLVIHDWGSALGFHWAKRNPERVKGIAFMEFIRPIPTWDEWPEFARETFQAFRTTDVGRKLIIDQNVFIEGTLPMGVVRPLTEVEMDHYREPFLNPVDREPLWRFPNELPIAGEPANIVALVEEYMDWLHQSPVPKLLFWGTPGVLIPPAEAARLAKSLPNCKAVDIGPGLNLLQEDNPDLIGSEIARWLSTLEISG
modifications: JF646 Halo ligand covalently bound to the Halo tag
notes: also called truncation 6
With B3, in test [1], the binding result was “no binding”.

B4: SRRM2_4-Halo (other)
chain: MYNGIGLPTPRGSGTNGYVQRNLSLVRGRRGERPDYKGEEELRRLEAALVKRPNPDILDHERKRRVELRCLELEEMMEEQGYEEQQIQEKVATFRLMLLEKDVNPGGKEETPGQRPAVTETHQLAELNEKKNERLRAAFGISDSYVDGSSFDPQRRAREAKQPAPEPPKPYSLVRESSSSRSPTPKQKKKKKKKDRGRRSESSSPRRERKKSSKKKKHRSESESKKRKHRSPTPKSKRKSKDKKRKRSRSTTPAPKSRRAHRSTSADSASSSDTSRSRSRSAAAKTHTTALAGRSPSPASGRRGEGDAPFSEPGTTSTQRPSSPETATKQPSSPYEDKDKDKKEKSATRPSPSPERSSTGPEPPAPTPLLAERHGGSPQPLATTPLSQEPVNPPSEASPTRDRSPPKSPEKLPQSSSSESSPPSPQPTKVSRHASSSPESPKPAPAPGSHREISSSPTSKNRSHGRAKRDKSHSHTPSRRMGRSRSPATAKRGRSRSRTPTKRGHSRSRSPQWRRSRSAQRWGRSRSPQRRGRSRSPQRPGWSRSRNTQRRGRSRSARRGRSHSRSPATRGRSRSRTPARRGRSRSRTPARRRSRSRTPTRRRSRSRTPARRGRSRSRTPARRRSRTRSPVRRRSRSRSPARRSGRSRSRTPARRGRSRSRTPARRGRSRSRTPARRSGRSRSRTPARRGRSRSRTPRRGRSRSRSLVRRGRSHSRTPQRRGRSGSSSERKNKSRTSQRRSRSNSSPEMKKSRISSRRSRSLSSPRSKAKSRLSLRRSLSGSSPCPKQKSQTPPRRSRSGSSQPKAKSRTPPRRSRSSSSPPPKQKSKTPSRQSHSSSSPHPKVKSGTPPRQGSITSPQANEQSVTPQRRSCFESSPDPELKSRTPSRHSCSGSSPPRVKSSTPPRQSPSRSSSPQPKVKAIISPRQRSHSGSSSPSPSRVTSRTTPRRSRSVSPCSNVESRLLPRYSHSGSSSPDTKVKPETPPRQSHSGSISPYPKVKAQTPPGPSLSGSKSPCPQEKSKDSLVQSCPGSLSLCAGVKSSTPPGESYFGVSSLQLKGQSQTSPDHRSDTSSPEVRQSHSESPSLQSKSQTSPKGGRSRSSSPVTELASRSPIRQDRGEFSASPMLKSGMSPEQSRFQSDSSSYPTVDSNSLLGQSRLETAESKEKMALPPQEDATASPPRQKDKFSPFPVQDRPESSLVFKDTLRTPPRERSGAGSSPETKEQNSALPTSSQDEELMEVVEKSEEPAGQILSHLSSELKEMSTSNFESSPEVEERPAVSLTLDQSQSQASLEAVEVPSMASSWGGPHFSPEHKELSNSPLRENSFGSPLEFRNSGPLGTEMNTGFSSEVKEDLNGPFMAEIGTGFPFDPHYVEVLGERMHYVDVGPRDGTPVLFLHGNPTSSYVWRNIIPHVAPTHRCIAPDLIGMGKSDKPDLGYFFDDHVRFMDAFIEALGLEEVVLVIHDWGSALGFHWAKRNPERVKGIAFMEFIRPIPTWDEWPEFARETFQAFRTTDVGRKLIIDQNVFIEGTLPMGVVRPLTEVEMDHYREPFLNPVDREPLWRFPNELPIAGEPANIVALVEEYMDWLHQSPVPKLLFWGTPGVLIPPAEAARLAKSLPNCKAVDIGPGLNLLQEDNPDLIGSEIARWLSTLEISG
modifications: JF646 Halo ligand covalently bound to the Halo tag
notes: also called truncation 4
Turning to B4, the binding result in test [1] is “no binding”.

B5: SRRM2_7-Halo (other)
chain: MYNGIGLPTPRGSGTNGYVQRNLSLVRGRRGERPDYKGEEELRRLEAALVKRPNPDILDHERKRRVELRCLELEEMMEEQGYEEQQIQEKVATFRLMLLEKDVNPGGKEETPGQRPAVTETHQLAELNEKKNERLRAAFGISDSYVDGSSFDPQRRAREAKQPAPEPPKPYSLVRESSSSRSPTPKQKKKKKKKDRGRRSESSSPRRERKKSSKKKKHRSESESKKRKHRSPTPKSKRKSKDKKRKRSRSTTPAPKSRRAHRSTSADSASSSDTSRSRSRSAAAKTHTTALAGRSPSPASGRRGEGDAPFSEPGTTSTQRPSSPETATKQPSSPYEDKDKDKKEKSATRPSPSPERSSTGPEPPAPTPLLAERHGGSPQPLATTPLSQEPVNPPSEASPTRDRSPPKSPEKLPQSSSSESSPPSPQPTKVMAEIGTGFPFDPHYVEVLGERMHYVDVGPRDGTPVLFLHGNPTSSYVWRNIIPHVAPTHRCIAPDLIGMGKSDKPDLGYFFDDHVRFMDAFIEALGLEEVVLVIHDWGSALGFHWAKRNPERVKGIAFMEFIRPIPTWDEWPEFARETFQAFRTTDVGRKLIIDQNVFIEGTLPMGVVRPLTEVEMDHYREPFLNPVDREPLWRFPNELPIAGEPANIVALVEEYMDWLHQSPVPKLLFWGTPGVLIPPAEAARLAKSLPNCKAVDIGPGLNLLQEDNPDLIGSEIARWLSTLEISG
modifications: JF646 Halo ligand covalently bound to the Halo tag
notes: also called truncation 7
Turning to B5, the binding result in test [1] was “no binding”.
